Results on five molecules are retold here after US20180072804A1 (Hoffmann-La Roche, published 2018).

As usually defined, the Kd is a measure of binding affinity in units of concentration. What is called EC50 is the midpoint of the concentration-response curve.

Experiment [1] has as its target T1, human TIM3, full length, on cells (human, UniProt Q8TDQ0 22-301). Kind of experiment: FACS competition, RPMI-8226 cells; competitor Tim3_0016.
The target of experiment [2] is T1, human TIM3, full length, on cells. Kind of experiment: FACS competition, RPMI-8226 cells; competitor Tim3_0026.
For experiment [3] the target is unchanged. Kind of experiment: FACS competition, RPMI-8226 cells; competitor Tim3_0018.
The target is the same in experiment [4]. Kind of experiment: FACS, human CD14+ monocytes, donor1, 10 µg/ml. (A flow cytometer gives signals particle by particle.)
The target is the same in experiment [5]. Kind of experiment: FACS competition, RPMI-8226 cells; competitor Tim3_0022.
Experiment [6] deals with cynomolgus TIM-3 on isolated cyno CD14+ monocytes (cynomolgus monkey). Briefly: FACS, cyno CD14+ monocytes, cyno1 (16719M).
Experiment [7] has as its target T1, human TIM3, full length, on cells. Kind of experiment: FACS competition, RPMI-8226 cells; competitor Tim3_0028.
Experiment [8] has the same target. Kind of experiment: FACS, human CD14+ monocytes, donor2, 10 µg/ml.
The target in experiment [9] is cynomolgus TIM-3 on isolated cyno CD14+ monocytes (cynomolgus monkey). Briefly: FACS, cyno CD14+ monocytes, cyno2 (17435M).
Experiment [10] has the same target. Briefly: FACS, cyno CD14+ monocytes, cyno3 (30085F).
Experiment [11] concerns the target T1, human TIM3, full length, on cells. Briefly: FACS competition, RPMI-8226 cells; competitor Tim3_0038.
Experiment [12] shares this target. Kind of experiment: FACS, human CD14+ monocytes, donor3, 10 µg/ml.
Experiment [13] has the same target. Briefly: FACS, human CD14+ monocytes, donor2, isotype control.
The target of experiment [14] is cynomolgus TIM-3 on isolated cyno CD14+ monocytes (cynomolgus monkey). Briefly: FACS, cyno CD14+ monocytes, cyno3 (30085F), isotype control.
For experiment [15] the target is unchanged. Briefly: FACS, cyno CD14+ monocytes, cyno1 (16719M), isotype control.
For experiment [16] the target is unchanged. Kind of experiment: FACS, cyno CD14+ monocytes, cyno2 (17435M), isotype control.
Experiment [17] concerns the target T1, human TIM3, full length, on cells. Briefly: FACS, human CD14+ monocytes, donor3, isotype control.
The target is the same in experiment [18]. Briefly: FACS, human CD14+ monocytes, donor1, isotype control.
Experiment [19] shares this target. Kind of experiment: cell-based or functional assay.
Experiment [20] has as its target T2, monomeric human Tim3-ECD (human, UniProt Q8TDQ0 22-202).
T2 construct: also called huTim3; hu Tim3-ECD
Kind of experiment: SPR, Ab captured on anti-mouse IgG, 25 C. For orientation: SPR reads the build-up and loss of mass on a sensor chip optically.

The target in experiment [21] is T3, Fc-tagged human Tim3-ECD dimer (human, UniProt Q8TDQ0 22-202).
T3 construct: also called huTim3Fc; huFc fused dimeric human Tim3-ECD
Kind of experiment: SPR, Ab captured on anti-mouse IgG, 25 C.

Experiment [22] addresses monomeric cyno Tim3-ECD (cynomolgus). Briefly: ELISA on cynomolgus Tim3.
Experiment [23] shares this target. Kind of experiment: SPR, Ab captured on anti-mouse IgG, 25 C.
Experiment [24] addresses T4, Tim3-ECD-His-Biotin (human, UniProt Q8TDQ0 22-202, biotinylated with BirA Ligase).
T4 construct: Coated on streptavidin plates; also called human Tim3 (ELISA); Biochem Human
Briefly: ELISA on human Tim3. On the technique in general: An ELISA detects its analyte on a solid surface through an enzyme-linked reagent.

The target in experiment [25] is T1, human TIM3, full length, on cells. Kind of experiment: cell ELISA, CHO-K1 with full-length human Tim3.
In experiment [26] the target is T3, Fc-tagged human Tim3-ECD dimer. Briefly: SPR, Ab captured on anti-mouse IgG, dimeric Tim3-ECD-Fc.
Procedure: Therefore, an anti-mouse IgG was immobilized by amine coupling to the surface of a (BIAcore) CMS sensor chip. […] The sensor chip surface was regenerated after each analysis cycle. The equilibrium constant KD was finally gained by fitting the data to a 1:1 Langmuir interaction model.
The samples were injected for 30 seconds with a concentration of 200 μg/ml and bound to the spots 1 and 5 of each flow cell, allowing the measurement of eight samples in parallel. […] The flow rate was set to 30 μl/min for the whole run.
Finally the double referenced data was fitted to a 1:1 Langmuir interaction model with the BIAcore B4000 Evaluation Software.
The target in experiment [27] is T1, human TIM3, full length, on cells. Kind of experiment: cell-based or functional assay. This is another data set of the same source.
Experiment [28] deals with T5, cynomolgus TIM-3 on isolated cyno CD14+ monocytes (cynomolgus monkey, UniProt A0A2K5U3G7 22-294).
T5 construct: whole, on cells; also called cyno monocytes expressing TIM-3
T5 sequence: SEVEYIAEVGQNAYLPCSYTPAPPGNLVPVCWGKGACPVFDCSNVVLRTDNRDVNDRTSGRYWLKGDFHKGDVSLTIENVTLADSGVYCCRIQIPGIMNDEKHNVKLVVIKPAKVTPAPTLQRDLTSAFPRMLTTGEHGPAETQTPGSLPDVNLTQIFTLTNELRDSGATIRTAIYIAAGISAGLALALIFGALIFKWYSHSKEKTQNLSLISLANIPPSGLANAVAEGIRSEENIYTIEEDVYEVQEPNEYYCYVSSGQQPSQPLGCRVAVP
Kind of experiment: FACS, cyno CD14+ monocytes, cyno1 (16719M).
Source text: (§1) CD14+ Monocytes were isolated from cynomolgus monkey anticoagulated peripheral blood (Covance) by density gradient centrifugation using Ficoll-Paque (GE Healthcare) (see General Protocols in the User Manuals or visit www.miltenyibiotec.com/protocols) and subsequent positive selection via NHP CD14 MicroBeads. First the CD14+ cells are magnetically labeled with CD14 MicroBeads. Then the cell suspension is loaded onto a MACS® Column which is placed in the magnetic field of a MACS Separator. The magnetically labeled CD14+ cells are retained in the column. The unlabeled cells run through, this cell fraction is depleted of CD14+ cells. After removal of the column from the magnetic field, the magnetically retained CD14+ cells can be eluted as the positively selected cell fraction. After centrifugation at 200×g for 10 min at room temperature the monocytes were harvested and used directly in binding assay or resuspended in freezing medium (10% DMSO, 90% FCS) at 1.0E+07 cells/ml and stored in liquid nitrogen.
(§2) After washing and centrifugation MFI signals of stained cells were analyzed by BD Biosciences FACSCanto flow cytometer.

Experiment [29] concerns the target T2, monomeric human Tim3-ECD. Kind of experiment: SPR, Ab captured on anti-mouse IgG, monomeric Tim3-ECD; monomer Tim3, not the Fc-tagged dimer.
In experiment [30] the target is T1, human TIM3, full length, on cells. Briefly: cell ELISA, CHO-K1 with full-length human Tim3.
Procedure: Then the reaction was stopped by addition of 25 μl/well 1N HCL-solution.
The target is the same in experiment [31]. Briefly: cell ELISA, CHO-K1 with full-length human Tim3. This is another data set of the same source.
Experiment [32] concerns the target T5, cynomolgus TIM-3 on isolated cyno CD14+ …. Briefly: FACS, cyno CD14+ monocytes, cyno3 (30085F).
Source text: as §1, §2
The target is the same in experiment [33]. Kind of experiment: FACS, cyno CD14+ monocytes, cyno2 (17435M).
Source text: as §1, §2
Experiment [34] addresses T4, Tim3-ECD-His-Biotin. Kind of experiment: ELISA on Tim3-ECD-His-Biotin.
Procedure: After washing (3×90 μl/well with PBST-buffer) 25 μl/well sheep-anti-mouse-POD (GE NA9310V) was added in 1:9000 dilution and incubated at RT for 1 h while shaking at 400 rpm rotation. After washing (4×90 μl/well with PBST-buffer) 25 TMB substrate (Calbiochem, #CL07) was added and incubated until OD 1.5-2.5. Then the reaction was stopped by addition of 25 μl/well 1N HCL-solution.

Where “and” joins values, the source holds several entries; their conditions need not be identical. Identical values can stand only once. Like-named read-outs stand apart in the source and are kept apart here.

As to “anti-human TIM-3 rat monoclonal antibody clone 344823 (R&D Systems)”, the Max % Inhibition of Binding in [1] worked out at 0%; in experiment [2], 3%; in [3], 0%; in [5] it was 102%; in [7], 107%; in experiment [11], 99%. In addition, the Specific Binding [MFI] in experiment [4] came out at 1010 MFI; in experiment [6], 158 MFI; in [8] it was 917 MFI; in experiment [9] it was 121 MFI; in experiment [10], 143 MFI; in experiment [12], 814 MFI.
As to Rat-IgG2A isotype control (antibody), the Specific Binding [MFI] was 68 MFI in experiment [13]; 91 MFI in experiment [14]; 84 MFI in experiment [15]; 86 MFI in experiment [16]; 70 MFI in experiment [17]; 71 MFI in experiment [18].
For the molecule M-IgG1 isotype control (antibody), the Specific Binding [MFI] is 55 MFI in experiment [13]; 83 MFI in [14]; 72 MFI in experiment [15]; 82 MFI in [16]; 213 MFI in experiment [17]; 144 MFI in experiment [18].
Regarding “anti-human TIM-3 mouse monoclonal antibody clone F38-2E2”, the Max % Inhibition of Binding was -7% in experiment [1]; 2% in [2]; 6% in [3]; 77% in experiment [5]; 75% in [7]; 94% in [11]. In experiment [19], the IFNgamma release in MLR, % of rec hu IL-2 control, 1 µg/ml came to 7%. The molecule further came in with an IFNgamma release in MLR, % of rec hu IL-2 control, 10 µg/ml in [19] of 26%. In [19], this molecule showed an IFNgamma release in MLR, % of rec hu IL-2 control, 40 µg/ml of 36%. Besides, the Specific Binding [MFI] in experiment [4] is 516 MFI; in experiment [6], 135 MFI; in experiment [8], 493 MFI; in experiment [9] it was 136 MFI; in experiment [10], 124 MFI; in [12], 460 MFI. For the same molecule, the Kd with monomeric human Tim3-ECD [20] worked out at 13.6 nM; in [21], 7.5 nM; in [23], 168 nM. The EC50 was 0.423 µg/mL in experiment [22], 0.0732 µg/mL with Tim3-ECD-His-Biotin [24] and 0.15 µg/mL in experiment [25]. Besides, the values for the Inflexion point (in experiment [22]; in the experiment with Tim3-ECD-His-Biotin [24]; in [25]) were 210000 ng/mL, 88.3 ng/mL and 224 ng/mL, respectively.

B1: anti-TIM3 antibody Tim3_0016 variant (Tim3_0018) (antibody, V domains shown)
VH: QVTLKESGPGILQPSQTLSLTCSFSGFSLSTSGMSVGWIRQPSGKGLEWLAHIWLNDDVFFNPALKRRLTISKDTSNNQVFLQIASVVTADTATYYCVRANGYLYALDYWGQGISVTVSS
VL: QIVLTQSPAIMSASPGQKVTITCSASSSVNYTQWYQQKLGSSPKLWIYDAFKLAPGVPARFSGSGTGTSYSLTISSMEAEDAASYFCHQWSSYPWTFGGGTKLEIK
notes: Mouse monoclonal from hybridoma; also called TIM3-0016 variant (0018); Tim3_0016 variant 0018-A488
Regarding B1, the Kd in [26] came out at 1.1 nM; with monomeric human Tim3-ECD [29] it was 3.4 nM; with monomeric human Tim3-ECD [20], 3.4 nM; in [21], 1.11 nM; in experiment [23], 41.9 nM. The “IFNgamma release in MLR, % of rec hu IL-2 control, 1 µg/ml” value in [27] was 12%. Besides, the “IFNgamma release in MLR, % of rec hu IL-2 control, 10 µg/ml” value in [27] turned out to be 30%. For the same molecule, the “IFNgamma release in MLR, % of rec hu IL-2 control, 40 µg/ml” value in [27] was determined as 36%. Besides, the “Specific Binding [MFI]” value in [28] turned out to be 301 MFI; in [4] it was 2330 MFI; in experiment [8], 1820 MFI; in [32], 417 MFI; in experiment [33] it was 480 MFI; in experiment [12] it was 1940 MFI. Further, the EC50 in experiment [30] is 0.52 nM and 0.087 µg/mL; in experiment [31], 0.0264 µg/mL; in experiment [22], 0.0146 µg/mL; with Tim3-ECD-His-Biotin [24], 0.0151 µg/mL; with Tim3-ECD-His-Biotin [34], 0.56 nM and 0.094 µg/mL. In addition, the Inflexion point in experiment [31] stood at 29.4 ng/mL; in [22], 14.6 ng/mL; with Tim3-ECD-His-Biotin [24] it was 15.3 ng/mL.
